No end group written: not given here.
Assays:
Test in all cases: ELISA, biotinylated 12-mer peptide on streptavidin, 2 ug/mL FLAG-tagged VHH, anti-FLAG-HRP
[1] = target: T1, FX activation peptide 12-mer DFNQTQPERGDN (SEQ ID NO:729) (human)
T1 peptide: DFNQTQPERGDN-biotin
Description: (§1) To determine whether the binding epitope of the anti-FX VHH polypeptide designated “cmpd #1” are located inside the activation peptide (AP) of human FX (SEQ ID NO:2), an ELISA assay was setup. 41 unique 12-mer peptide fragments spanning the 52 residues of the activation peptide with one amino acid spacing were immobilized in microtiter plate wells followed by incubation with the VHH polypeptide to be tested, and detection of bound ligand was performed by addition of a secondary HRP-labelled antibody.
(§2) The peptides were C-terminally conjugated to biotin and 50 μL of 1 μg/mL peptide solution was used for immobilization in discrete wells of the microtiter plate which was pre-coated with 1 μg/mL streptavidin. Each well was washed with washing buffer (10 mM Tris, 150 mM NaCl, 2.5 mM CaCl₂, 0.05% Tween 20, pH 8.60) followed by addition of 50 μL of 2 μg/mL FLAG-tagged anti-FX VHH polypeptide or IgG antibody to be tested. After 1 hour non-bound VHH polypeptide was washed off using washing buffer.
(§3) Bound anti-FX activation peptide ligand was detected by first binding a HRP-labelled secondary antibody (for FLAG-tagged VHH polypeptide: Anti-FLAG mAb M2-Peroxidase (HRP) (Sigma Aldrich, US) for 1 hour, and then adding 100 μL TMB-1 ELISA substrate (Kem-En-Tec Diagnostics, Denmark).

[2] = target: T2, FX activation peptide 12-mer DLDPTENPFDLL (SEQ ID NO:717) (human)
T2 peptide: DLDPTENPFDLL-biotin
Description: as §1, §2, §3

[3] = target: T3, FX activation peptide 12-mer DPTENPFDLLDF (SEQ ID NO:719) (human)
T3 peptide: DPTENPFDLLDF-biotin
Description: as §1, §2, §3

[4] = target: T4, FX activation peptide 12-mer KPYDAADLDPTE (SEQ ID NO:711) (human)
T4 peptide: KPYDAADLDPTE-biotin
Description: as §1, §2, §3

[5] = target: T5, FX activation peptide 12-mer DLLDFNQTQPER (SEQ ID NO:726) (human)
T5 peptide: DLLDFNQTQPER-biotin
Description: as §1, §2, §3

[6] = target: T6, FX activation peptide 12-mer LDFNQTQPERGD (SEQ ID NO:728) (human)
T6 peptide: LDFNQTQPERGD-biotin
Description: as §1, §2, §3

[7] = target: T7, FX activation peptide 12-mer NPFDLLDFNQTQ (SEQ ID NO:723) (human)
T7 peptide: NPFDLLDFNQTQ-biotin
Description: as §1, §2, §3

[8] = target: T8, FX activation peptide 12-mer SGEAPDSITWKP (SEQ ID NO:701) (human)
T8 peptide: SGEAPDSITWKP-biotin
Description: as §1, §2, §3

[9] = target: T9, FX activation peptide 12-mer LDPTENPFDLLD (SEQ ID NO:718) (human)
T9 peptide: LDPTENPFDLLD-biotin
Description: as §1, §2, §3

[10] = target: T10, FX activation peptide 12-mer SITWKPYDAADL (SEQ ID NO:707) (human)
T10 peptide: SITWKPYDAADL-biotin
Description: as §1, §2, §3

[11] = target: T11, FX activation peptide 12-mer PFDLLDFNQTQP (SEQ ID NO:724) (human)
T11 peptide: PFDLLDFNQTQP-biotin
Description: as §1, §2, §3

[12] = target: T12, FX activation peptide 12-mer ATSSSGEAPDSI (SEQ ID NO:697) (human)
T12 peptide: ATSSSGEAPDSI-biotin
Description: as §1, §2, §3

[13] = target: T13, FX activation peptide 12-mer FDLLDFNQTQPE (SEQ ID NO:725) (human)
T13 peptide: FDLLDFNQTQPE-biotin
Description: as §1, §2, §3

[14] = target: T14, FX activation peptide 12-mer AADLDPTENPFD (SEQ ID NO:715) (human)
T14 peptide: AADLDPTENPFD-biotin
Description: as §1, §2, §3

[15] = target: T15, FX activation peptide 12-mer SVAQATSSSGEA (SEQ ID NO:693) (human)
T15 peptide: SVAQATSSSGEA-biotin
Description: as §1, §2, §3

[16] = target: T16, FX activation peptide 12-mer SSSGEAPDSITW (SEQ ID NO:699) (human)
T16 peptide: SSSGEAPDSITW-biotin
Description: as §1, §2, §3

[17] = target: T17, FX activation peptide 12-mer SSGEAPDSITWK (SEQ ID NO:700) (human)
T17 peptide: SSGEAPDSITWK-biotin
Description: as §1, §2, §3

[18] = target: T18, FX activation peptide 12-mer TENPFDLLDFNQ (SEQ ID NO:721) (human)
T18 peptide: TENPFDLLDFNQ-biotin
Description: as §1, §2, §3

ELISA signal normalized relative to the background signal [1]: 0.94 fold of background | ELISA signal normalized relative to the background signal [2]: 1 fold of background | ELISA signal normalized relative to the background signal [3]: 4.16 fold of background | ELISA signal normalized relative to the background signal [4]: 0.8 fold of background | ELISA signal normalized relative to the background signal [5]: 3.08 fold of background | ELISA signal normalized relative to the background signal [6]: 0.97 fold of background | ELISA signal normalized relative to the background signal [7]: 3.13 fold of background | ELISA signal normalized relative to the background signal [8]: 0.88 fold of background | ELISA signal normalized relative to the background signal [9]: 1.11 fold of background | ELISA signal normalized relative to the background signal [10]: 1.08 fold of background | ELISA signal normalized relative to the background signal [11]: 4.95 fold of background | ELISA signal normalized relative to the background signal [12]: 0.98 fold of background | ELISA signal normalized relative to the background signal [13]: 4.38 fold of background | ELISA signal normalized relative to the background signal [14]: 0.88 fold of background | ELISA signal normalized relative to the background signal [15]: 0.96 fold of background | ELISA signal normalized relative to the background signal [16]: 0.86 fold of background | ELISA signal normalized relative to the background signal [17]: 0.88 fold of background | ELISA signal normalized relative to the background signal [18]: 4.84 fold of background
B1: Cmpd #1 (monovalent anti-FX VHH polypeptide, VHH-1.1) (VHH)
VHH: EVQLVESGGGLVQPGGSLRLSCAASGSIGAFDAMGWYRQAPGKQRELVAGIMVSRGNTNYTDSVKGRFTISRDNAKNTVYLQMNSLKPEDTAVYYCKAVKRPGPGYLEVWGQGTLVTVSS
notes: no protractor; FLAG-tagged in the peptide ELISA
